Test results from publication PMC6920703, “Measuring glycolytic flux in single yeast cells with an orthogonal synthetic biosensor” (Molecular Systems Biology, 2019).
“Also recorded” adds a separate entry of the source.

How the values were obtained:
[1] = system: CggR R250A (Bacillus subtilis); assay: EMSA; details: 20 mM FBP; 35 nM DNA, 2 or 4 uM CggR, 10 mM Na3PO4 pH 7.8, 100 mM NaCl, 1 mM EDTA, 1 mM DTT, 5% glycerol, 1 ug salmon sperm DNA, 20 min room temperature; 5% native PAGE …
[2] = system: CggR wild type (Bacillus subtilis); assay: EMSA; details: 20 mM FBP; 35 nM DNA, 2 or 4 uM CggR, 10 mM Na3PO4 pH 7.8, 100 mM NaCl, 1 mM EDTA, 1 mM DTT, 5% glycerol, 1 ug salmon sperm DNA, 20 min room temperature; 5% native PAGE …
[3] = Thermal shift assay: CggR-FBP affinity constants (KD) from melting curves; type: binding; details: for KD ratio change (KD of the CggR mutant variant / KD of the wild type) / KD ratio change: desired/undesired sign: Fig 5D; for Obtained effects on affinity for FBP: classification based on thermal shift assays; on KD ratio change: desired/undesired sign: key: +: A plus sign indicates desired characteristics achieved in the mutants; -: a minus sign indicates undesired effects of the mutations
Method: The K D of the wild type and mutant CggR variants was calculated by fitting the T m data into a simple cooperative model using the GraphPad software.

[4] = system: DNA fragments containing the CggR operator sites; assay: Electrophoresis mobility shift assay: CggR binding to DNA; details: for DNA binding affinity: desired/undesired sign / DNA binding affinity: Fig 5D; for DNA binding affinity: compared with wild type; for CggR binding to DNA in the absence of FBP: 0 mM FBP, Fig 5C; on DNA binding affinity: desired/undesired sign: key: +: A plus sign indicates desired characteristics achieved in the mutants; -: a minus sign indicates undesired effects of the mutations
Method: Fluorescently labeled DNA fragments were generated by hybridization of single‐stranded forward (labeled with Alexa Fluor 647 at the 5′ end) and reverse (unlabeled) oligonucleotides containing the CggR operator sites. The hybridization protocol and respective hybridization efficiency control were performed as described elsewhere (Bley Folly et al, 2018).
Hybridized labeled DNA fragments (final concentration 35 nM) were incubated 20 min at room temperature with 2 or 4 μM of the purified wild type or mutant CggR variants, in the presence of different concentrations of FBP (0; 0.5; 1; 2.5; 5; 10; and 20 mM) in a final volume of 25 μl in binding buffer (10 mM Na3PO4 pH 7.8, 100 mM NaCl, 1 mM EDTA, 1 mM DTT, 5% glycerol) including 1 μg of salmon sperm DNA. The sample mixtures were loaded in a 5% native polyacrylamide gel and run in native conditions in the dark with constant voltage (200V) at 4°C for 2 h.
Fluorescence was imaged using the Typhoon 9400 (Amersham Biosciences, UK) with the excitation set to 650 nm and the emission set to 655 nm. The background‐subtracted total intensities of the protein–DNA complex and the free‐DNA bands were assessed using ImageJ (Abràmoff et al, 2004), and bound DNA/total DNA was calculated by dividing the intensity of the protein–DNA complex band by the total DNA (i.e., the sum of the signal from the protein–DNA complex band plus the one from free DNA).

[5] = Thermal shift assay: protein stability (melting temperature) of CggR variants; details: for Protein stability: desired/undesired sign / Protein stability: Fig 5D; for Protein stability: compared with wild type
Method: A sample mixture of 25 μl final volume containing 5 μl of 5× SYPRO Orange (Molecular Probes; Eugene, OR), 0.2 mg of the purified CggR, and different concentrations of the FBP metabolite (0; 0.01; 0.1; 0.5; 0.75; 1; 2.5; 10; 20; and 36 mM) was prepared on ice. Control experiments were performed to test the effect of the counter ion NaCl present in FBP salt solutions. Here, the NaCl was added instead of FBP to a final concentration threefold higher than the FBP itself (0; 0.03; 0.3; 1.5; 2.25; 3; 7.5; 30; 60; and 108 mM).
Sample mixtures were transferred into 96‐well PCR plates (Bio‐Rad, CA, USA), sealed with Optical‐Quality Sealing Tape (Bio‐Rad, CA, USA), and analyzed in a CFX96 Real‐Time System combined with C1000 Touch Thermal Cycler (Bio‐Rad, CA, USA). Analysis consisted of a single heating cycle from 20 to 99°C with increments of 0.5°C steps, followed by fluorescence intensity monitoring with a charge‐coupled device camera. The wavelengths for excitation and emission were 490 and 575 nm, respectively. The melting temperature (T m) was automatically calculated by the control software and corresponded to the local maximum of the first derivative of measured fluorescence versus temperature.

[6] = KD for FBP relative to wild type CggR (1 mM)

Row | Molecule | binding signal (% of CggR remaining bound vs 0 mM FBP) [1] | binding signal (% of CggR remaining bound vs 0 mM FBP) [2] | KD ratio change (KD of the CggR mutant variant / KD of the wild type) [3] | KD ratio change: desired/undesired sign [3] | fold lower KD than wild type [3, 6] [fold] | Obtained effects on affinity for FBP [3] | Obtained effects on DNA binding affinity [4] | DNA binding affinity: desired/undesired sign [4] | DNA binding affinity [4] | Obtained effects on stability [5] | Protein stability: desired/undesired sign [5] | Protein stability [5] | CggR binding to DNA in the absence of FBP [4] | fold increase of KD over wild type [3, 6] [fold] | CggR remained bound to DNA at high FBP levels ([4]; 20 mM FBP relative to bound fraction at 0 mM FBP)
1 | CggR operator duplex (CggRO) | 30 | 30 |  |  |  |  |  |  |  |  |  |  |  |  | 
2 | T151S: CggR mutant, position 151 Thr to Ser, at the CggR-FBP-binding site (protein, UniProt O32253 1-340, looked up, variant T151S) Central glycolytic genes …: MNQLIQAQKKLLPDLLLVMQKRFEILQYIRLTEPIGRRSLSASLGISERVLRGEVQFLKEQNLVDIKTNGMTLTEEGYELLSVLEDTMKDVLGLTLLEKTLKERLNLKDAIIVSGDSDQSPWVKKEMGRAAVACMKKRFSGKNIVAVTGGSTIEAVAEMMTPDSKNRELLFVPARGGLGEDVKNQANTICAHMAEKASGTYRLLFVPGQLSQGAYSSIIEEPSVKEVLNTIKSASMLVHGIGEAKTMAQRRNTPLEDLKKIDDNDAVTEAFGYYFNADGEVVHKVHSVGMQLDDIDAIPDIIAVAGGSSKAEAIEAYFKKPRNTVLVTDEGAAKKLLRDE |  |  | 0.90 | - | 1.1 | mild affinity increase | No effect | + | Same range | No effect | + | Same range |  |  | 
3 | R175K: CggR mutant, position 175 Arg to Lys, at the CggR-FBP-binding site (protein, UniProt O32253 1-340, looked up, variant R175K) Central glycolytic genes …: MNQLIQAQKKLLPDLLLVMQKRFEILQYIRLTEPIGRRSLSASLGISERVLRGEVQFLKEQNLVDIKTNGMTLTEEGYELLSVLEDTMKDVLGLTLLEKTLKERLNLKDAIIVSGDSDQSPWVKKEMGRAAVACMKKRFSGKNIVAVTGGTTIEAVAEMMTPDSKNRELLFVPAKGGLGEDVKNQANTICAHMAEKASGTYRLLFVPGQLSQGAYSSIIEEPSVKEVLNTIKSASMLVHGIGEAKTMAQRRNTPLEDLKKIDDNDAVTEAFGYYFNADGEVVHKVHSVGMQLDDIDAIPDIIAVAGGSSKAEAIEAYFKKPRNTVLVTDEGAAKKLLRDE |  |  | 0.98 | - |  | negligible affinity increase | Disrupted affinity | - | No binding | No effect | + | Same range | did not bind to the DNA anymore |  | 
4 | T152S: CggR mutant, position 152 Thr to Ser, at the CggR-FBP-binding site (protein, UniProt O32253 1-340, looked up, variant T152S) Central glycolytic genes …: MNQLIQAQKKLLPDLLLVMQKRFEILQYIRLTEPIGRRSLSASLGISERVLRGEVQFLKEQNLVDIKTNGMTLTEEGYELLSVLEDTMKDVLGLTLLEKTLKERLNLKDAIIVSGDSDQSPWVKKEMGRAAVACMKKRFSGKNIVAVTGGTSIEAVAEMMTPDSKNRELLFVPARGGLGEDVKNQANTICAHMAEKASGTYRLLFVPGQLSQGAYSSIIEEPSVKEVLNTIKSASMLVHGIGEAKTMAQRRNTPLEDLKKIDDNDAVTEAFGYYFNADGEVVHKVHSVGMQLDDIDAIPDIIAVAGGSSKAEAIEAYFKKPRNTVLVTDEGAAKKLLRDE |  |  | 0.62 | - | 1.6 |  | No effect | + | Same range | No effect | + | Same range |  |  | 
5 | T151V: CggR mutant, position 151 Thr to Val, at the CggR-FBP-binding site (protein, UniProt O32253 1-340, looked up, variant T151V) Central glycolytic genes …: MNQLIQAQKKLLPDLLLVMQKRFEILQYIRLTEPIGRRSLSASLGISERVLRGEVQFLKEQNLVDIKTNGMTLTEEGYELLSVLEDTMKDVLGLTLLEKTLKERLNLKDAIIVSGDSDQSPWVKKEMGRAAVACMKKRFSGKNIVAVTGGVTIEAVAEMMTPDSKNRELLFVPARGGLGEDVKNQANTICAHMAEKASGTYRLLFVPGQLSQGAYSSIIEEPSVKEVLNTIKSASMLVHGIGEAKTMAQRRNTPLEDLKKIDDNDAVTEAFGYYFNADGEVVHKVHSVGMQLDDIDAIPDIIAVAGGSSKAEAIEAYFKKPRNTVLVTDEGAAKKLLRDE |  |  | 2.59 | + |  | strong affinity decrease | Reduced affinity | - | Reduced | Strong decrease |  | Very low | only bound with lower affinity | 2.6 | 
6 | R250A: CggR mutant, position 250 Arg to Ala; selected for the glycolytic flux biosensor (protein, UniProt O32253 1-340, looked up, variant R250A) Central glycolytic genes …: MNQLIQAQKKLLPDLLLVMQKRFEILQYIRLTEPIGRRSLSASLGISERVLRGEVQFLKEQNLVDIKTNGMTLTEEGYELLSVLEDTMKDVLGLTLLEKTLKERLNLKDAIIVSGDSDQSPWVKKEMGRAAVACMKKRFSGKNIVAVTGGTTIEAVAEMMTPDSKNRELLFVPARGGLGEDVKNQANTICAHMAEKASGTYRLLFVPGQLSQGAYSSIIEEPSVKEVLNTIKSASMLVHGIGEAKTMAQARNTPLEDLKKIDDNDAVTEAFGYYFNADGEVVHKVHSVGMQLDDIDAIPDIIAVAGGSSKAEAIEAYFKKPRNTVLVTDEGAAKKLLRDE |  |  | 1.52 | + |  | desired decrease in FBP affinity; also recorded: strong affinity decrease | No effect | + | Same range | No effect |  | Same range | similar |  | around 30%
7 | E269Q: CggR mutant, position 269 Glu to Gln, at the CggR-FBP-binding site (protein, UniProt O32253 1-340, looked up, variant E269Q) Central glycolytic genes …: MNQLIQAQKKLLPDLLLVMQKRFEILQYIRLTEPIGRRSLSASLGISERVLRGEVQFLKEQNLVDIKTNGMTLTEEGYELLSVLEDTMKDVLGLTLLEKTLKERLNLKDAIIVSGDSDQSPWVKKEMGRAAVACMKKRFSGKNIVAVTGGTTIEAVAEMMTPDSKNRELLFVPARGGLGEDVKNQANTICAHMAEKASGTYRLLFVPGQLSQGAYSSIIEEPSVKEVLNTIKSASMLVHGIGEAKTMAQRRNTPLEDLKKIDDNDAVTQAFGYYFNADGEVVHKVHSVGMQLDDIDAIPDIIAVAGGSSKAEAIEAYFKKPRNTVLVTDEGAAKKLLRDE |  |  | 0.79 | - |  | mild affinity increase | Disrupted affinity | - | No binding | Strong decrease |  | Very low | did not bind to the DNA anymore |  | 
